Experimental data: patent publication CN112079917A (CANVEST WUHAN BIOTECHNOLOGY CO LTD, dated 2020)

Key:
[1] = biological target: SH02 HA毒株 (A/Shanghai/2/2013 H7N9) HA蛋白 (influenza A virus A/Shanghai/2/2013 H7N9); test: ELISA, IgG form on HA protein
[2] = biological target: 17SF HA毒株 (A/Guangdong/17SF003/2016) HA蛋白 (influenza A virus A/Guangdong/17SF003/2016 (H7N9)); test: ELISA, IgG form on HA protein
BSA = BSA (UniProt P02769 25-607); test: ELISA, IgG form
Chain of BSA (P02769 25-607 limits assumed): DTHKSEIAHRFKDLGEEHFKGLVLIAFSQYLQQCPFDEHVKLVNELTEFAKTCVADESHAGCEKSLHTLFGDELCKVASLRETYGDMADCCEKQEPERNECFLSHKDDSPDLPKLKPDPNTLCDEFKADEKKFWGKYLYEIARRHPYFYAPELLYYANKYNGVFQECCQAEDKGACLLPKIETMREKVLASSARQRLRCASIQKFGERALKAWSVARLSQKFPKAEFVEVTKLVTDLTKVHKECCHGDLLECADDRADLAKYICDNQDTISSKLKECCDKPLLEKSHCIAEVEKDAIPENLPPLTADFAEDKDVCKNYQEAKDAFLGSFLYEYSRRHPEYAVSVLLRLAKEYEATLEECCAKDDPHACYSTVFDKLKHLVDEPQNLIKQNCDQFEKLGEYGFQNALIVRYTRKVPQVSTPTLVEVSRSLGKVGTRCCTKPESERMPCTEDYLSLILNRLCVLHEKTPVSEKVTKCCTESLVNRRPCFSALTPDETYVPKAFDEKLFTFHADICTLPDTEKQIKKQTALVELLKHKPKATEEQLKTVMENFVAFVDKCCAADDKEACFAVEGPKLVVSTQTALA

B1: H7N9病毒特异性识别抗体P51H08 (IgG形式) (antibody, V domains shown)
VH: QVQLVQSGGGLVQPGGSMRLSCAASGFTFSSYAMSWVRQAPGKGLEWVSGISGSGGSTYYADSVKGRFTISRDNSKNTLHLPMNSLRADDTAVYYCAKDLNWWPDYWGQGTLVTVSS
VL: SYVLTQPPSVSVAPGKTASMTCGGNNIGSKRVHWYQQKPGQAPVLVVYNDNERPSAIPERFSGSNSGNTATLTVSRVEAGDEADYYCLVWDSSSLHRVFGGGTKLTVLG
In the case of B1, the EC50 [1] is reported as 1.65 nM, the EC50 [2] is reported as 3.56 nM and the binding result (BSA) is reported as “no binding”.
